Measured values taken from paper PMC2810336, “Mutational Analysis of Highly Conserved Residues in the Phage PhiC31 Integrase Reveals Key Amino Acids Necessary for the DNA Recombination”.

Target: T1, phiC31 integrase Y393A (Streptomyces phage phiC31, UniProt Q38194 1-613, Y393A)
T1 sequence: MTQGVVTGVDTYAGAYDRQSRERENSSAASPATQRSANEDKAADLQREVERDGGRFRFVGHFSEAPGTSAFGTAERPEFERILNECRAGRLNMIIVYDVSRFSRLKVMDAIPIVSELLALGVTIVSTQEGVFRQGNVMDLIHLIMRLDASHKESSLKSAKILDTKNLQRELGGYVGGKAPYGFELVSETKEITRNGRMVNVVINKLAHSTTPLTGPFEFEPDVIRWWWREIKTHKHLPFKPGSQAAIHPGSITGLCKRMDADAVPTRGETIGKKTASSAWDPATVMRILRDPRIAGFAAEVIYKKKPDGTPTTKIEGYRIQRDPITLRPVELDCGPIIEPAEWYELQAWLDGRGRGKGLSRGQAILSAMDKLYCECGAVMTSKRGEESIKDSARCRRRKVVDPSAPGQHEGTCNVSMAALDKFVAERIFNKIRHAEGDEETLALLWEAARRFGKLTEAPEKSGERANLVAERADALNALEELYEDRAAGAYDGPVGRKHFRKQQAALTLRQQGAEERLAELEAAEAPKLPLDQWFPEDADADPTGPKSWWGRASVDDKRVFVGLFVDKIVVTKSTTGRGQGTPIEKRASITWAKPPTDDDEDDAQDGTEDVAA
Experiment: EMSA; 400 nM protein; 50 ng/ul Poly (competitor (so in the source)), 0.05% NP-40, 50 mM KCl, 5 mM MgCl2, 10 mM EDTA, 20 ul, 0.4 ng (16 fmol) probe; 30 min at room temperature (Methods) or 30 C; pH not stated; synapsis 2 h at 30 C
Conditions: protein: recombinant; tags: C-terminal His; chain copies: 2; label: biotin, double-strand end-labeled; blunt

B1: attB 41 bp (dsDNA)
DNA 1: CGGGTGCCAGGGCGTGCCCTTGGGCTCCCCGGGCGCGTACT
DNA 2: AGTACGCGCCCGGGGAGCCCAAGGGCACGCCCTGGCACCCG
binding signal: 0 % of WT
